The values below come from patent publication EP4574169A1.

The target in test [1] is ACE2.
The target of test [2] is ACE2. Put plainly: ratio of ACE2 binding ELISA to Spike RBD detection ELISA; concentrated supernatant of virus-infected Vero cells. For orientation: In an ELISA, binding on a coated surface is turned into a signal by an enzyme label.
Test [3] has as its target ACE2. Put plainly: ACE2 binding detection ELISA (ACE2 on solid phase, detection with anti-spikeRBD antibody); concentrated supernatant of virus-infected Vero cells.

Like-named read-outs stand apart in the source and are kept apart here.

For the substance “Cov2SPPF (polypeptide B: structure of A with further deletion of the furin cleavage site, R683A R685 (from UniProt P0DTC2 14-1273)”, the ACE2 bind with ACE2 [1] turned out to be 7 ng/mL; in the test with ACE2 [3], 0.5 ng/mL. Further, the ACE2 bind/ Spike RBD was 0.076 with ACE2 [1] and 0.094 with ACE2 [2].

Regarding “Cov2STH (polypeptide C: mu-phosphatase leader, extracellular region (ECD) of the spike protein, PP m (from UniProt P0DTC2 16-1213)”, the ACE2 bind worked out at 202 ng/mL in the test with ACE2 [1] and 19.8 ng/mL with ACE2 [3]. The ACE2 bind/ Spike RBD in the test with ACE2 [1] was found to be 2.3; in the test with ACE2 [2] it was 6.5.
